Target: wt human lysyl-tRNA synthetase (h-LysRS, cytosolic) (human) (UniProt Q15046)
Experiment: EMSA
Conditions: 1 mM Mg2+, Kd values printed only in Fig. 4C, EMSA: 20 mM HEPES pH 7.4, 60 mM NaCl, 10 mM KCl, 1 mM MgCl2, 400 uM DTT, 8% glycerol, room temperature 30 min, 37.5 nM tRNA, 0-5 uM LysRS, Hill fit, SYBR Gold …

Sequence of wt human lysyl-tRNA synthetase (h-LysRS, cytosolic) (human) (Q15046 whole entry): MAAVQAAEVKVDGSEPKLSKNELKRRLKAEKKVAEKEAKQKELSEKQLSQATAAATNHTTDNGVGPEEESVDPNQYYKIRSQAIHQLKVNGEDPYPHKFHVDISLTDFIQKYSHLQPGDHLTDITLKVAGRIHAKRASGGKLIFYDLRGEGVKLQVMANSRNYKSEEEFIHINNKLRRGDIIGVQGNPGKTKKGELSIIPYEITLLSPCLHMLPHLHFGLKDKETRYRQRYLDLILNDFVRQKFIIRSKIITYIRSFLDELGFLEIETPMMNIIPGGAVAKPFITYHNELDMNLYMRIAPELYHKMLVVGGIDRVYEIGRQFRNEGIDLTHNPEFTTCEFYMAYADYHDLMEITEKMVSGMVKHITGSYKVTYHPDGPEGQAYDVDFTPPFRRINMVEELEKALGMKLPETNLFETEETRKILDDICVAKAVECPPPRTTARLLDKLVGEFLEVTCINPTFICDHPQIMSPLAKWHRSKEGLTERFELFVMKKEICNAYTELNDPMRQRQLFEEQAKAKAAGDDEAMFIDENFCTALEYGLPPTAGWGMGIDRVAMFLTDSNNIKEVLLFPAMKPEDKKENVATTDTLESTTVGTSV

Substance | binding signal (scale: fold lower affinity than modified tRNALys3) | binding signal (fold higher affinity than IVT tRNALys3) (native modifications, named: m2G10, D20, S34 (mcm5s2U), R37 (ms2t6A), D47, psi55, 9 types, 14 modified nucleotides modeled)
IVT unmodified tRNALys3 | 2.5 | –
cellular fully modified tRNALys3 | – | 2.5
